According to article PMC2064162 (The Journal of Cell Biology, 2006):

Target: Sar1p (yeast, UniProt P20606 1-190)
Assay: pull-down

Sar1p, sequence (P20606 whole entry): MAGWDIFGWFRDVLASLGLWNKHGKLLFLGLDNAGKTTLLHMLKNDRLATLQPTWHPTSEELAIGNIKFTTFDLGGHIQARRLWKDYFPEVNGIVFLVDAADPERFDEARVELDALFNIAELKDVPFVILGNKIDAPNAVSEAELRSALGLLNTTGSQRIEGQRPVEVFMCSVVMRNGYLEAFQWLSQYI

Q: Does MRRRSRC [GalNAcT2 cytoplasmic domain peptide (wild type, MRRRSRC)] bind?
A: Result: binds
